In PMC3077074 one finds stoichiometry N data, which are given here for one substance.

The assay addresses Helicobacter hepaticus Group III 2/2 hemoglobin (Hh Hb), wild type (Helicobacter hepaticus ATCC51449). The experiment in a line: NMR 15N relaxation.

Consider “Helicobacter hepaticus Group III 2/2 hemoglobin (Hh Hb), wild type (natural protein)”, for which the stoichiometry N was above 2.

Usually stoichiometry N stands for a count of units in the complex or per binding partner.
